In assay [1] the target is T1, human CTLA4 expressed on the surface of T-cells (human, UniProt P16410 36-223).
T1 sequence (looked up): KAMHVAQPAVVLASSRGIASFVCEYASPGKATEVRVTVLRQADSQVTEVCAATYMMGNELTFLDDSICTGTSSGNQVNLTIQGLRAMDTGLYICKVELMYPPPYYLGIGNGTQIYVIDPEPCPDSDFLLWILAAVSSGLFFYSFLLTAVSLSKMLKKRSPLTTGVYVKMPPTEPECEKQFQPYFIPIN
As to the kind of experiment: cell-based or functional assay.

For assay [2], the target named is T1, human CTLA4 expressed on the surface of …. The assay can be described thus: flow cytometry on stimulated human CD4+ T cells, antibody at 5 ug/ml. As to the method: In order to determine whether the lead monoclonal antibodies bound to CTLA4 expressed on the surface of T-cells, a flow cytometric analysis was performed. Human peripheral T cells were isolated from human PBMC (peripheral blood mononuclear cells) and stimulated to enhance expression of CTLA4. CD4+ cells were purified from PBMC using a CD4⁺ T Cell Isolation Kit (Miltenyi Biotec, Bisley, UK), plated out in a 24 well plate (1×10⁶ cells/well) in AIM-V Medium (Invitrogen, Paisley, UK) and incubated at 37° C. overnight. Cells were stimulated with lonomycin (1 μg/ml) and PMA (phorbol 12-myristate 13-acetate) (50 ng/ml) and incubated 4 h at 37° C. Cells were washed once in AIM-V medium, fixed in PBS containing 2% formaldehyde for 15 min, and resuspended in FACS buffer (D-PBS containing 1% BSA, 0.05% sodium azide and 0.1% Saponin) at 2×10⁶ cells/ml and incubated 30 min at 4° C.
2×10⁵ cells were stained using either a 1 in 10 dilution of anti-CTLA4-PE conjugated antibody (BNI3) (Abcam, Cambridge, UK) as a positive control or with 5 μg/ml of individual anti-CTLA4 monoclonal antibodies together with a 1 in 50 dilution of anti-mouse IgG-PE conjugated antibody (Sigma). Mouse IgG (Sigma) was also included as separate controls for the different murine isotypes present within the lead monoclonal antibodies. […] Instrument settings were determined by analysis of relevant isotype control antibodies. […]

The target of assay [3] is T2, Recombinant CTLA4-fusion protein comprising the extracellular domain of human CTLA4 fused to the human IgG1 … (human, UniProt P16410 36-161).
T2 construct: extracellular domain; Bought reagent; Coated on ELISA plates at 0.5 ug/ml; also called CTLA4-Fc; CTLA4-Ig; not shown: human IgG1 constant domain (Fc); a Factor Xa site lies between CTLA4 and Fc, since the fusion was cle
T2 sequence (looked up): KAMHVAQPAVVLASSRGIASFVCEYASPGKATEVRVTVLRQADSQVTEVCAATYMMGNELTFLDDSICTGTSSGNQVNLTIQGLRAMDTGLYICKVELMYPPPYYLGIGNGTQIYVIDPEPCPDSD
As to the kind of experiment: ELISA on coated CTLA4-Fc.

The target in assay [4] is T2, Recombinant CTLA4-fusion protein …. The assay can be described thus: CTLA4 binding ELISA on coated CTLA4-Fc. For orientation: An ELISA detects its analyte on a solid surface through an enzyme-linked reagent.
For assay [5], the target named is T1, human CTLA4 expressed on the surface of …. As to the kind of experiment: flow cytometry on CTLA4 expressed on T cells. On the technique in general: Flow cytometry measures light scatter and fluorescence of single cells or particles in a stream.

Residue numbers refer to the chain shown, from its start.

B1: lead humanised variant VH5/VK4 anti-CTLA4 antibody (antibody, V domains shown)
VH: QVQLVQSGAELKKPGASVKVSCKASGYTFTSYWINWIRQAPGQGLEWIGRIAPGSGTTYYNEVFKGRVTITVDKSTSTAYMELSSLRSEDTAVYFCARGDYGSYWGQGTLVTVSS
VL: EIVLTQSPATLSLSPGERATLSCSASSSISYMHWFQQRPGQSPRRWIYDTSKLASGVPARFSGSGSGTDYTLTISSLEPEDFATYYCHQRTSYPLTFGQGTKLEIKR
As to B1, in assay [1], the “IFN-gamma secretion in human mixed lymphocyte reaction (T cell activation), antibody at 150 ug/ml, compared to MDX010” value amounted to 2 fold.

B2: murine monoclonal antibody 8H5 (subclone 8H5-1B1) (antibody, V domains shown)
VH: QVQLQQSGDDLVKPGASVKLSCKASGYTFTSYWINWIKQRPGQGLEWIGRIAPGSGTTYYNEVFKGKATLTVDKYSSTAYIQLSSLSSEDSAVYFCARGDYGSYWGQGTLVTVSS
VL: QIVLTQSPAIMSASPGEKVTMTCSASSSISYMHWFQQKPGTSPKRWIYDTSKLASGVPARFSGSGSGTSYSLTINSMEAEDAATYYCHQRTSYPLTFGAGTKLELK
notes: Mouse hybridoma antibody with a kappa light chain; also called 8H5-1A1
On to B2, for which the binding result in assay [2] and in assay [3] was “binds” in each case.

B3: chimeric 8H5 human IgG1 antibody (antibody, V domains shown)
VH: B2 VH
VL: B2 VL
modifications: Biotinylated when used as the labelled competitor in Example 6.
notes: Gamma 4 versions were also cloned; also called 8H5 chimeric antibody; h8H5 parent IgG1
For B3, the binding result in assay [4] and in assay [5] was “binds” each time.

B4: chimeric 3B10 human IgG1 antibody (antibody, V domains shown)
VH: EVQLQQFGAELVKPGASVKMSCKASGYTFTDYNMDWVRQSHGKSLEWIGNINPNSESTSYNQKFKGKATLTVDKSSSTAYMELRSLTSDDTAVYYCTRDGNRYDAWFAYWGQGTLVTVSS
VL: B2 VL with I29V, S30T, R45L, D49S, K52I, N75S, S76R, H88Q, A99T
modifications: Biotinylated when used as the labelled competitor in Example 6.
notes: Gamma 4 versions were also cloned; also called 3B10 chimeric antibody; parental 3B10 chimeric antibody
Regarding B4, the binding result in assay [4] and in assay [5] was “binds” each time.

B5: murine monoclonal antibody 3B10 (subclone 3B10-4F7) (antibody, V domains shown)
VH: B4 VH
VL: B2 VL with I29V, S30T, R45L, D49S, K52I, N75S, S76R, H88Q, A99T
notes: Mouse hybridoma antibody with a kappa light chain; also called 3B10-6E3
As for B5, the binding result in assay [2] and in assay [3] was “binds” throughout.

(Values after patent US20140105914A1 (ANTITOPE, published 2014).)
